Values of other authors as cited in paper PMC5904255.

Target: C1q (Homo sapiens) (UniProt P02745)
Sequence (P02745 23-245, chain 1 of 3): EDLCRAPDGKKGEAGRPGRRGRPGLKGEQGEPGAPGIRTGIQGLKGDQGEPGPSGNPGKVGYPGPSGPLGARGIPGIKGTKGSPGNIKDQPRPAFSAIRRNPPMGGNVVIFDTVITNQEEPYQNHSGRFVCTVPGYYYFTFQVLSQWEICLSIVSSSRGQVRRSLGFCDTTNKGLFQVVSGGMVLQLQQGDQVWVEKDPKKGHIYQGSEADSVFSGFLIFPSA
Sequence (P02746 28-253, chain 2 of 3, further chain): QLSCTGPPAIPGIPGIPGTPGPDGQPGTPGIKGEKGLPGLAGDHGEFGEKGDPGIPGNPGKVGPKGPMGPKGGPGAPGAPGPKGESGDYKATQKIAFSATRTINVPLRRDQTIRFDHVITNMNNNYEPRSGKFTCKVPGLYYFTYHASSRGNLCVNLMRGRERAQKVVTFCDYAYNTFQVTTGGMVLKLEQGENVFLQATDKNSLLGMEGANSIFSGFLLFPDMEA
Sequence (P02747 29-245, chain 3 of 3, further chain): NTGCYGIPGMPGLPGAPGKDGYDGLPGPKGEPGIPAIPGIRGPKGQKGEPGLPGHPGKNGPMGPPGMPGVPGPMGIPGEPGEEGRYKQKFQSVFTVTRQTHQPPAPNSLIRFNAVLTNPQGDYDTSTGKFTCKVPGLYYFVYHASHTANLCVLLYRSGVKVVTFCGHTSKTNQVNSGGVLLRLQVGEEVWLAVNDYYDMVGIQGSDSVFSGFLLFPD

HMGB1, sequence (P09429 whole entry): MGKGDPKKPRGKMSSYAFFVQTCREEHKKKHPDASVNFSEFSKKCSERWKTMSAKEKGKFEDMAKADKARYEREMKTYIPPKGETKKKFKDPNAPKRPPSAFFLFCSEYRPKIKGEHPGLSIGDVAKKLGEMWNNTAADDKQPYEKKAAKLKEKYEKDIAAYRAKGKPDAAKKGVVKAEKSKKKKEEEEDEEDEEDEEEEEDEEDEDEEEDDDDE

In the case of HMGB1 (from UniProt P09429), the Kd is listed as 200 nM.
